Among the data in US20260042834A1 (HBM ALPHA THERAPEUTICS, published 2026) are Kd, koff and kon values, retold here.

First the molecules themselves.
T1: biotinylated CRH (human and mouse, not fully specified; biotinylated, position not stated)
T1 construct: also called Biotin-CRH; biotin-labeled CRH
T1 peptide: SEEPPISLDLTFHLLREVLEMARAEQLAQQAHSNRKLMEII

B1: PR302334-10 (antibody, human IgG1, kappa, V domains shown)
VH: EVQLVESGGGLVQPGGSLRLSCAASGFTFSTYAMSWVRQAPGKGLEWVASIRSGGTTYYPDSVKGRFTISRDNSKNTLYLQMNSLRAEDTAVYYCTRGIDWGQGTTVTVSS
VL: DIVMTQSPDSLAVSLGERATINCKASQSVNNDVAWYQQKPGQPPRLLIYYASNRYTGVPDRFSGSGSGTDFTLTISSLQAEDLAVYFCQQDYSSWTFGGGTKVEIKR
notes: Humanized variant of PR302334
B2: PR302334-24 (antibody, human IgG1, kappa, V domains shown)
VH: EVQLVESGGGLVKPGGSLRLSCAASGFTFSTYAMSWVRQAPGKGLEWVASIRSGGTTYYPDSVKGRFTISRDNAKNSLYLQMNSLRAEDTAVYYCTRGIDWGQGTTVTVSS
VL: DIVMTQSPDSLAVSLGERATINCKASQSVNNDVAWYQQKPGQPPRLLIYYASNRYTGVPDRFSGSGSGTDFTLTISSLQAEDLAVYFCQQDYSSWTFGGGTKVEIKR
notes: Humanized variant of PR302334
B3: PR302334-8 (antibody, human IgG1, kappa, V domains shown)
VH: EVQLVESGGGLVQPGGSLRLSCAASGFTFSTYAMSWVRQAPGKGLEWVASIRSGGTTYYPDSVKGRFTISRDNSKNTLYLQMNSLRAEDTAVYYCTRGIDWGQGTTVTVSS
VL: EIVMTQSPATLSVSPGERATLSCKASQSVNNDVAWYQQKPGQAPRLLIYYASNRYTGIPARFSGSGSGTEFTLTISSLQSEDLAVYFCQQDYSSWTFGGGTKVEIKR
notes: Humanized variant of PR302334
B4: PR005656 (antibody, human IgG1, kappa, V domains shown)
VH: EVQLVESGGVLVQPGGSLRLSCAASGFTFSSYWMTWVRQAPGKGLEWVANIKQEGSEKYYVDSVKGRFTISRDNAKNSLFLQMNSLRAEDTAVYYCARTLIFDYWGQGTLVTVSS
VL: DIVMTQSPLSLPVTPGEPASISCRSSQSLLHSTGYNSLEWYLQKPGQSPQLLIYLGSNRASGVPDRFSGSGSGTDFTLKISRVEAEDVGIYYCMQTLQTPITFGQGTRLEIKR
notes: PTM-removal variant of PR004290
B5: PR006148 (antibody, human IgG1, kappa, V domains shown)
VH: EVQLVESGGVLVQPGGSLRLSCAASGFTFSSYWMTWVRQAPGKGLEWVANIKQDASEKYYVDSVKGRFTISRDNAKNSLFLQMNSLRAEDTAVYYCARTLIFDYWGQGTLVTVSS
VL: DIVMTQSPLSLPVTPGEPASISCRSSQSLLHSTGYNPLEWYLQKPGQSPQLLIYLGSNRASGVPDRFSGSGSGTDFTLKISRVEAEDVGIYYCMQTLQTPITFGQGTRLEIKR
notes: as for B4
B6: PR005658 (antibody, human IgG1, kappa, V domains shown)
VH: EVQLVESGGVLVQPGGSLRLSCAASGFTFSSYWMTWVRQAPGKGLEWVANIKQDGSEKYYVDSVKGRFTISRDNAKNSLFLQMNSLRAEDTAVYYCARTLIFDYWGQGTLVTVSS
VL: DIVMTQSPLSLPVTPGEPASISCRSSQSLLHSTGYQSLEWYLQKPGQSPQLLIYLGSNRASGVPDRFSGSGSGTDFTLKISRVEAEDVGIYYCMQTLQTPITFGQGTRLEIKR
notes: as for B4
B7: PR006143 (antibody, human IgG1, kappa, V domains shown)
VH: EVQLVESGGVLVQPGGSLRLSCAASGFTFSSYWMTWVRQAPGKGLEWVANIKQEGSEKYYVDSVKGRFTISRDNAKNSLFLQMNSLRAEDTAVYYCARTLIFDYWGQGTLVTVSS
VL: DIVMTQSPLSLPVTPGEPASISCRSSQSLLHSTGYHSLEWYLQKPGQSPQLLIYLGSNRASGVPDRFSGSGSGTDFTLKISRVEAEDVGIYYCMQTLQTPITFGQGTRLEIKR
notes: as for B4
B8: PR006145 (antibody, human IgG1, kappa, V domains shown)
VH: EVQLVESGGVLVQPGGSLRLSCAASGFTFSSYWMTWVRQAPGKGLEWVANIKQEGSEKYYVDSVKGRFTISRDNAKNSLFLQMNSLRAEDTAVYYCARTLIFDYWGQGTLVTVSS
VL: DIVMTQSPLSLPVTPGEPASISCRSSQSLLHSTGYSSLEWYLQKPGQSPQLLIYLGSNRASGVPDRFSGSGSGTDFTLKISRVEAEDVGIYYCMQTLQTPITFGQGTRLEIKR
notes: as for B4
B9: PR006147 (antibody, human IgG1, kappa, V domains shown)
VH: EVQLVESGGVLVQPGGSLRLSCAASGFTFSSYWMTWVRQAPGKGLEWVANIKQDASEKYYVDSVKGRFTISRDNAKNSLFLQMNSLRAEDTAVYYCARTLIFDYWGQGTLVTVSS
VL: DIVMTQSPLSLPVTPGEPASISCRSSQSLLHSTGYHSLEWYLQKPGQSPQLLIYLGSNRASGVPDRFSGSGSGTDFTLKISRVEAEDVGIYYCMQTLQTPITFGQGTRLEIKR
notes: as for B4
B10: PR006142 (antibody, human IgG1, kappa, V domains shown)
VH: EVQLVESGGVLVQPGGSLRLSCAASGFTFSSYWMTWVRQAPGKGLEWVANIKQEGSEKYYVDSVKGRFTISRDNAKNSLFLQMNSLRAEDTAVYYCARTLIFDYWGQGTLVTVSS
VL: DIVMTQSPLSLPVTPGEPASISCRSSQSLLHSTGYDSLEWYLQKPGQSPQLLIYLGSNRASGVPDRFSGSGSGTDFTLKISRVEAEDVGIYYCMQTLQTPITFGQGTRLEIKR
notes: as for B4
B11: PR006151 (antibody, human IgG1, kappa, V domains shown)
VH: EVQLVESGGVLVQPGGSLRLSCAASGFTFSSYWMTWVRQAPGKGLEWVANIKQDSSEKYYVDSVKGRFTISRDNAKNSLFLQMNSLRAEDTAVYYCARTLIFDYWGQGTLVTVSS
VL: DIVMTQSPLSLPVTPGEPASISCRSSQSLLHSTGYHSLEWYLQKPGQSPQLLIYLGSNRASGVPDRFSGSGSGTDFTLKISRVEAEDVGIYYCMQTLQTPITFGQGTRLEIKR
notes: as for B4
B12: PR006149 (antibody, human IgG1, kappa, V domains shown)
VH: EVQLVESGGVLVQPGGSLRLSCAASGFTFSSYWMTWVRQAPGKGLEWVANIKQDASEKYYVDSVKGRFTISRDNAKNSLFLQMNSLRAEDTAVYYCARTLIFDYWGQGTLVTVSS
VL: DIVMTQSPLSLPVTPGEPASISCRSSQSLLHSTGYSSLEWYLQKPGQSPQLLIYLGSNRASGVPDRFSGSGSGTDFTLKISRVEAEDVGIYYCMQTLQTPITFGQGTRLEIKR
notes: as for B4
B13: PR006144 (antibody, human IgG1, kappa, V domains shown)
VH: EVQLVESGGVLVQPGGSLRLSCAASGFTFSSYWMTWVRQAPGKGLEWVANIKQEGSEKYYVDSVKGRFTISRDNAKNSLFLQMNSLRAEDTAVYYCARTLIFDYWGQGTLVTVSS
VL: DIVMTQSPLSLPVTPGEPASISCRSSQSLLHSTGYNPLEWYLQKPGQSPQLLIYLGSNRASGVPDRFSGSGSGTDFTLKISRVEAEDVGIYYCMQTLQTPITFGQGTRLEIKR
notes: as for B4
B14: PR005657 (antibody, human IgG1, kappa, V domains shown)
VH: EVQLVESGGVLVQPGGSLRLSCAASGFTFSSYWMTWVRQAPGKGLEWVANIKQDASEKYYVDSVKGRFTISRDNAKNSLFLQMNSLRAEDTAVYYCARTLIFDYWGQGTLVTVSS
VL: DIVMTQSPLSLPVTPGEPASISCRSSQSLLHSTGYNSLEWYLQKPGQSPQLLIYLGSNRASGVPDRFSGSGSGTDFTLKISRVEAEDVGIYYCMQTLQTPITFGQGTRLEIKR
notes: as for B4
B15: PR006150 (antibody, human IgG1, kappa, V domains shown)
VH: EVQLVESGGVLVQPGGSLRLSCAASGFTFSSYWMTWVRQAPGKGLEWVANIKQDSSEKYYVDSVKGRFTISRDNAKNSLFLQMNSLRAEDTAVYYCARTLIFDYWGQGTLVTVSS
VL: DIVMTQSPLSLPVTPGEPASISCRSSQSLLHSTGYDSLEWYLQKPGQSPQLLIYLGSNRASGVPDRFSGSGSGTDFTLKISRVEAEDVGIYYCMQTLQTPITFGQGTRLEIKR
notes: as for B4
B16: PR006153 (antibody, human IgG1, kappa, V domains shown)
VH: EVQLVESGGVLVQPGGSLRLSCAASGFTFSSYWMTWVRQAPGKGLEWVANIKQDSSEKYYVDSVKGRFTISRDNAKNSLFLQMNSLRAEDTAVYYCARTLIFDYWGQGTLVTVSS
VL: DIVMTQSPLSLPVTPGEPASISCRSSQSLLHSTGYSSLEWYLQKPGQSPQLLIYLGSNRASGVPDRFSGSGSGTDFTLKISRVEAEDVGIYYCMQTLQTPITFGQGTRLEIKR
notes: as for B4
B17: PR005662 (antibody, human IgG1, kappa, V domains shown)
VH: EVQLVESGGVLVQPGGSLRLSCAASGFTFSSYWMTWVRQAPGKGLEWVANIKQDASEKYYVDSVKGRFTISRDNAKNSLFLQMNSLRAEDTAVYYCARTLIFDYWGQGTLVTVSS
VL: DIVMTQSPLSLPVTPGEPASISCRSSQSLLHSTGYQSLEWYLQKPGQSPQLLIYLGSNRASGVPDRFSGSGSGTDFTLKISRVEAEDVGIYYCMQTLQTPITFGQGTRLEIKR
notes: as for B4
B18: PR006146 (antibody, human IgG1, kappa, V domains shown)
VH: EVQLVESGGVLVQPGGSLRLSCAASGFTFSSYWMTWVRQAPGKGLEWVANIKQDASEKYYVDSVKGRFTISRDNAKNSLFLQMNSLRAEDTAVYYCARTLIFDYWGQGTLVTVSS
VL: DIVMTQSPLSLPVTPGEPASISCRSSQSLLHSTGYDSLEWYLQKPGQSPQLLIYLGSNRASGVPDRFSGSGSGTDFTLKISRVEAEDVGIYYCMQTLQTPITFGQGTRLEIKR
notes: as for B4

The target in this assay is T1, biotinylated CRH. Briefly: Octet BLI, biotinylated CRH on SA sensor. How it is done: Octet® Red 96e was used for affinity measurement. Octet® running buffer was prepared by diluting kinetics buffer 10× (Fortebio, Cat #18-1105) in PBS according to the manufacturer's instructions. Two columns of SA sensors (Fortebio, Cat #18-5019) were hydrated in running buffer for 10 mins, one for ligand capturing and the other for reference. Antibodies were 2-fold diluted and added into a 96-well plate. […] After a 60-second baseline step, sensors were dipped into analyte and buffer wells successively, with the association and dissociation time of 180 seconds and 800 seconds, respectively. […] Signals of reference wells and reference sensors were subtracted by selecting “Double reference” before data fitting.
(In general: In BLI a coated tip is dipped into the sample, and binding shifts an interference pattern.)
For the molecule B1, the equilibrium dissociation constant (Kd) (usually the equilibrium constant for the complex coming apart) is < 0.001 nM; the koff – broadly, the rate constant with which the complex falls apart – is < 1e-07 s⁻¹; the kon (in general, a measure of how fast the partners come together) came to 6840 M⁻¹ s⁻¹.

As to B2, the Kd is < 0.001 nM, the koff was < 1e-07 s⁻¹ and the kon amounted to 606000 M⁻¹ s⁻¹.

As for B3, the Kd is < 0.001 nM, the koff was < 1e-07 s⁻¹ and the kon was determined as 14700 M⁻¹ s⁻¹.

B4 registered a Kd of 0.0627 nM, a koff of 4.55e-05 s⁻¹ and a kon of 726000 M⁻¹ s⁻¹.

Consider B5, for which the Kd came out at 0.106 nM.

For the molecule B6, the Kd was determined as 0.179 nM, the koff is 9.11e-05 s⁻¹ and the kon is 509000 M⁻¹ s⁻¹.

With B7, the Kd was 0.0623 nM, the koff was 2.85e-05 s⁻¹ and the kon came to 457000 M⁻¹ s⁻¹.

Molecule B8 displayed a Kd of 0.305 nM, a koff of 6.75e-05 s⁻¹ and a kon of 222000 M⁻¹ s⁻¹.

In the case of B9, the Kd came to 0.142 nM, the koff came to 6.96e-05 s⁻¹ and the kon was 489000 M⁻¹ s⁻¹.

For B10, binding was characterised by a dissociation constant (Kd) of 0.123 nM, the koff stood at 4.08e-05 s⁻¹ and the kon is 333000 M⁻¹ s⁻¹.

For the molecule B11, the Kd was found to be 0.16 nM, the koff came out at 8e-05 s⁻¹ and the kon amounted to 500000 M⁻¹ s⁻¹.

B12: binding was characterised by a dissociation constant (Kd) of 0.16 nM, the koff worked out at 7.78e-05 s⁻¹ and the kon stood at 487000 M⁻¹ s⁻¹.

Regarding B13, binding was characterised by a dissociation constant (Kd) of 0.0895 nM, the koff was 4.47e-05 s⁻¹ and the kon was 499000 M⁻¹ s⁻¹.

B14 returned a Kd of 0.0913 nM.

As to B15, the Kd was 0.102 nM, the koff worked out at 5.66e-05 s⁻¹ and the kon came out at 555000 M⁻¹ s⁻¹.

Take B16: the Kd was found to be 0.171 nM, the koff was 8.36e-05 s⁻¹ and the kon was found to be 487000 M⁻¹ s⁻¹.

On to B17, for which the Kd is 0.209 nM, the koff amounted to 8.27e-05 s⁻¹ and the kon came out at 396000 M⁻¹ s⁻¹.

In turn, B18 showed a Kd of 0.109 nM, a koff of 4.84e-05 s⁻¹ and a kon of 445000 M⁻¹ s⁻¹.
